Results: the supplement of paper PMC11865577

Columns and labels:
Assay in all cases: pull-down binding Z-score (relative to library population); higher = stronger binding
Details in all cases: RNA library: Library-2
TO-N3 (biotin conjugate) = tested on: TO-N3 (biotin conjugate)
Outline: (§1)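 An RNA library (1 μg) carrying a Cy5 or Cy3 end label was heat-folded in phosphate/NaCl/KCl buffer, then incubated for 60 min at 25 °C with streptavidin beads loaded with 100 pmol of biotin-conjugated small molecule. The beads were washed three times, and bound RNA was released in hot SDS and hybridised to a DNA barcode microarray for 20 h at 55.5 °C. Each binding score was derived by subtracting the signal from beads without compound, averaging the barcoded replicate probes after removing the highest and lowest, and expressing the result as a Z-score relative to the library mean and standard deviation.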

[1] = tested on: TO-N3-2 (biotin conjugate)
Outline: as §1

[2] = tested on: TO-3-N3 (biotin conjugate)
Outline: as §1

[3] = tested on: TO-3-N3-2 (biotin conjugate)
Outline: as §1

Row | Sequence | pull-down binding Z-score (TO-N3 (biotin conjugate)) | pull-down binding Z-score [1] | pull-down binding Z-score [2] | pull-down binding Z-score [3]
1 | CCAUUCUUCGUAAGGGUGG [DMSMaPseq_invitro_SARS-CoV-2_Motif_28] | -0.198 | -0.66 | 0.0314 | -0.245
2 | CCAUUUCAUCUUUUAAAUGG | -0.985 | -0.946 | -0.598 | -0.38
3 | CCAUUUGCUAUGCAAAUGG | -1.05 | -1.56 | -0.562 | -0.677
4 | CCCAAGUCAUGAAGGAGAGGG [IAV_invivo_PA_3_Motif_13+IAV_invivo_PA_3_Motif_13] | 0.816 | 0.652 | 0.689 | 0.497
5 | CCCAAUCAUGAAGGG [IAV_invivo_PB1_2_Motif_24+IAV_invivo_PB1_2_Motif_24] | -0.488 | -0.373 | -0.131 | -0.407
6 | CCCAAUCGUGGCGUGUCGGCCUGCUUCGGCAGGCACUGGCGCCG [Pepper530] | 0.516 | 1.13 | 0.37 | 0.0777
7 | CCCAAUGUUGUUAAACCACACGAAAAGGG [IAV_invivo_PA_3_Motif_15+IAV_invivo_PA_3_Motif_15] | 0.504 | -0.323 | 0.621 | 0.104
8 | CCCAGAUGAAGGCACAGCUGGAGUGGAGUCCGCUGUUCUGAGGGGAUUCCUCAUUCUGGG [IAV_invivo_PB2_1_Motif_33+IAV_invivo_PB2_1_Motif_33] | 0.671 | 1.54 | -0.0325 | 0.166
9 | CCCAGUGCGGGG [IAV_invivo_NP_5_Motif_5+IAV_invivo_NP_5_Motif_5] | -1.12 | -0.984 | -0.794 | -0.664
10 | CCCAUCCGUGGGUGGG [IAV_invivo_NA_6_Motif_4+IAV_invivo_NA_6_Motif_4] | -0.897 | -0.95 | -0.525 | -0.239
11 | CCCAUUGGAGAGUCCCCCAAAGGAGUGGAGGAAAGUUCCAUUGGG [IAV_invivo_PA_3_Motif_26+IAV_invivo_PA_3_Motif_26] | -0.0467 | 0.298 | -0.0565 | -0.0971
12 | CCCCAAAAGAAAUUAUCUUCUUAGAGGG | 0.286 | 0.109 | -0.165 | -0.623
13 | CCCCACUACAAUUGGGG [IAV_invivo_HA_4_Motif_4+IAV_invivo_HA_4_Motif_4] | -0.0989 | -1.27 | 0.245 | -0.517
14 | CCCCAGGGAUGCAAAUAAGGGG [IAV_invivo_PB1_2_Motif_14+IAV_invivo_PB1_2_Motif_14] | -0.0747 | 0.241 | 0.0403 | 0.163
15 | CCCCGGCCCCGGCCCCGGCCCCGG [r(CCCCGG)4] | 0.747 | 1.48 | 0.661 | 0.272
16 | CCCGGAAAUAGCAGGAAGACCCAAAGUAAGAGAUCAAGCUGGG [IAV_invivo_HA_4_Motif_10+IAV_invivo_HA_4_Motif_10] | -0.157 | 0.433 | -0.309 | 0.505
17 | CCCUAAGACUAAAAAUGUUACAAAAGAAAAUGACUCUAAAGAGGGUUUUUUCACUUACAUUUGUGGG [DMSMaPseq_invitro_SARS-CoV-2_Motif_371] | -1.03 | -0.589 | -0.845 | -0.271
18 | CCCUGAACACAAUGACCAAAGAUGCUGAGAGAGGG [IAV_invivo_PB1_2_Motif_12+IAV_invivo_PB1_2_Motif_12] | 0.143 | 0.884 | -0.218 | 0.103
19 | CCGAAAUUAUGUCUUUACUGGUUAUCGUGUAACUAAAAACAGUAAAGUACAAAUAGG | -0.399 | -0.428 | -0.303 | -0.0158
20 | CCGAAUACCAUAAUGAAUCUGGCUUGAAAACCAUUCUUCGUAAGGGUGGUCGCACUAUUGCCUUUGG [DMSMaPseq_invitro_SARS-CoV-2_Multi_5_ComplexLevel_1] | -0.257 | 0.178 | -0.576 | -0.063
21 | CCGGUAAGGACGAUACUUACCUG [U1snRNP5ss-23] | 0.0948 | -0.181 | 0.363 | -0.205

Row | Sequence | pull-down binding Z-score (TO-N3 (biotin conjugate)) | pull-down binding Z-score [1] | pull-down binding Z-score [2] | pull-down binding Z-score [3]
22 | CCUAAACGAACAUGAAAUUUCUUGUUUUCUUAGG | -1.08 | -0.729 | -0.979 | -0.593
23 | CCUAAAGUGAAGUAUUUAUACUUUAUUAAAGG [DMSMaPseq_invitro_SARS-CoV-2_Motif_232] | 0.411 | -0.916 | 0.463 | -0.181
24 | CCUAAUGGAUGG [IAV_invivo_NA_6_Motif_15+IAV_invivo_NA_6_Motif_15] | -0.777 | -0.501 | -0.555 | -0.746
25 | CCUACUAAAAAGG | 0.766 | -0.0122 | 0.907 | 0.2
26 | CCUACUGAUGG [IAV_invivo_PA_3_Motif_12+IAV_invivo_PA_3_Motif_12] | -0.319 | -0.632 | 0.0894 | -0.207
27 | CCUAUACUGUUACUAGAUCAGGCAUUAGUGUCUGAUGUUGGUGAUAGUGCGG [DMSMaPseq_invitro_SARS-CoV-2_Motif_147] | 0.0062 | -0.184 | 0.0141 | 0.0824
28 | CCUAUCAAUGG [IAV_invivo_PB2_1_Motif_26+IAV_invivo_PB2_1_Motif_26] | 0.11 | -0.376 | 0.191 | -0.212
29 | CCUCGUACAAAAUUUUCAAGAUCGAAAAGGGG [IAV_invivo_NA_6_Motif_10+IAV_invivo_NA_6_Motif_10] | -0.362 | -0.605 | -0.278 | 0.159
30 | CCUCUAAAAGCCCCAAAAGAAAUUAUCUUCUUAGAGGGAGAAACACUUCCCACAGAAGUGUUAACAGAGG | -0.162 | 0.314 | -0.556 | -0.139
31 | CCUCUGACUAAGGGG [IAV_invivo_M1_M2_7_Motif_4+IAV_invivo_M1_M2_7_Motif_4] | -0.504 | -1.25 | -0.159 | -0.414
32 | CCUCUUGAGUGCAUUAAAGACCUUCUAGCACGUGCUGGUAAAGCUUCAUGCACUUUGUCCGAACAACUGGACUUUAUUGACACUAAGAGG [SHAPE_invitro_SARS-CoV-2_Multi_2_ComplexLevel_1] | 0.899 | 0.844 | 0.756 | -0.0693
33 | CCUGAAUCUUGG [IAV_invivo_PB1_2_Motif_21+IAV_invivo_PB1_2_Motif_21] | -0.925 | -0.502 | -0.834 | -0.491
34 | CCUGACUUAAAUGGUGAUGUGGUGGCUAUUGAUUAUAAACACUACACACCCUCUUUUAAGAAAGG | -0.206 | -0.275 | -0.161 | 0.00798
35 | CCUGCACCACGCACAUUGCUAACUAAGG [SHAPE_invitro_SARS-CoV-2_Motif_318] | -0.204 | 0.0122 | -0.429 | -0.173
36 | CCUGCCUGCCUGCCUG [r(CCUG)4] | 0.872 | 0.703 | 0.588 | 0.0557
37 | CCUGGUCAUGCAGAUCUCAGUGCCAAGGAGGCACAGGAUGUAAUCAUGGAAGUUGUUUUCCCUAACGAAGUGGGAGCCAGG | -0.414 | 0.44 | -0.749 | -0.23
38 | CCUGUGAACAGAUUGCUGACUCCCAGCAUCGGUCUCAUAGG [IAV_invivo_M1_M2_7_Motif_10+IAV_invivo_M1_M2_7_Motif_10] | -0.943 | -0.458 | -0.767 | -0.605
39 | CCUUACCCAGAUCCAUCAAGAAUCCUAGGGGCCGG | 0.876 | 0.308 | 0.842 | 0.14
40 | CCUUAUAAUUCACAGAAUGCUGUAGCCUCAAAGAUUUUGGGACUACCAACUCAAACUGUUGAUUCAUCACAGG [DMSMaPseq_invitro_SARS-CoV-2_Motif_319] | -0.341 | 0.0157 | -0.541 | -0.324
41 | CCUUCACACUCAAAGGCGGUGCACCAACAAAGGUUACUUUUGGUGAUGACACUGUGAUAGAAGUGCAAGG [SHAPE_invitro_SARS-CoV-2_Motif_51] | -0.605 | -0.0884 | -0.728 | -0.155
42 | CCUUCACUGUAGAAAAAGG [SHAPE_invivo_SARS-CoV-2_Motif_423] | -0.772 | -0.52 | -0.468 | -0.29

Row | Sequence | pull-down binding Z-score (TO-N3 (biotin conjugate)) | pull-down binding Z-score [1] | pull-down binding Z-score [2] | pull-down binding Z-score [3]
43 | CCUUGCACCUAAUAUGAUGGUAACAAACAAUACCUUCACACUCAAAGGCGGUGCACCAACAAAGGUUACUUUUGGUGAUGACACUGUGAUAGAAGUGCAAGG [SHAPE_invivo_SARS-CoV-2_Multi_7_ComplexLevel_1] | -0.857 | -0.526 | -0.657 | -0.454
44 | CCUUGCGAAAGGAGAGAAGGCUAAUGUGCUAAUUGGGCAAGG [IAV_invivo_PB2_1_Motif_34+IAV_invivo_PB2_1_Motif_34] | 0.291 | 0.837 | -0.245 | 0.584
45 | CCUUGUAGGUUUGUUACAGACACACCUAAAGG | -0.262 | -0.614 | -0.369 | -0.655
46 | CCUUUAGUACCUUUCUGGAUAACAAUUGCUUAUAUCAUUUGUAUUUCCACAAAGCAUUUCUAUUGG | -1.06 | -0.78 | -0.884 | -0.843
47 | CGAGUCUCUGAAACUCUACAGAGAUUCG [IAV_invivo_NS1_NEP_8_Motif_12+IAV_invivo_NS1_NEP_8_Motif_12] | -0.524 | -0.636 | -1 | -0.606
48 | CGCAGGGAAUGGAUAAUCUUGCCUGCG | -0.607 | -0.759 | -0.486 | -0.153
49 | CGGAUUCUGAAAGAAGAAUCCG [IAV_invivo_NS1_NEP_8_Motif_5+IAV_invivo_NS1_NEP_8_Motif_5] | 0.0717 | -0.902 | 0.432 | -0.255
50 | CGGCAUCAUAUGGGUUGCAACUGAGGGAGCCUUGAAUACACCAAAAGAUCACAUUGGCACCCGCAAUCCUGCUAACAAUGCUG [SHAPE_invitro_SARS-CoV-2_Motif_522] | -0.253 | 0.334 | -0.511 | 0.0568
51 | CGGCGGGCACGUAGUGUAGCUAGUCAAUCCAUCAUUGCCUACACUAUGUCACUUGGUG [SHAPE_invitro_SARS-CoV-2_Motif_429] | 1.13 | 1.07 | 0.745 | 0.313
52 | CGGGACCAACGAGGAAAUGUACUACUGUCUCCCG [IAV_invivo_PB2_1_Motif_23+IAV_invivo_PB2_1_Motif_23] | -0.196 | 0.354 | -0.431 | 0.118
53 | CGGGCUUAUGUUGCUCG | -0.791 | -0.956 | -0.429 | -0.43
54 | CGGGGCGGGAGGGGAAGGGACGCCCG [hsa-mir-6850] | 6.39 | 5.1 | 6.93 | 7.75
55 | CGGUUGCUUGGUCAGCAAGUGCAUGUCAUGAUGGCAUGGGCUGGCUAACAAUCG [IAV_invivo_NA_6_Motif_7+IAV_invivo_NA_6_Motif_7] | -0.939 | -0.222 | -0.929 | -0.69
56 | CGUGGUAUUCUUGCUAGUUACACUAGCCAUCCUUACUGCG | -1.1 | -0.427 | -0.913 | -0.37
57 | CGUUCGGAUGCUCGAACUGCACCUCAUGGUCAUGUUAUGGUUGAGCUGGUAGCAGAACUCGAAGGCAUUCAGUACG [SHAPE_invitro_SARS-CoV-2_Motif_11] | 0.0804 | 1.57 | -0.289 | -0.454
58 | CUAACAAUCUAGUUGUAAUGGCCUACAUUACAGGUGGUGUUGUUCAG [SHAPE_invivo_SARS-CoV-2_Motif_39] | -0.379 | -0.761 | -0.352 | -0.607
59 | CUAACAUGCUUAG [SHAPE_invitro_SARS-CoV-2_Motif_280] | 0.578 | -0.734 | 0.709 | -0.299
60 | CUAACUGAGAAUAAAUAUUCUCAAUUAG | -1.59 | -1.87 | -0.985 | -0.937
61 | CUAAGUCACUAACUGAGAAUAAAUAUUCUCAAUUAGAUGAAGAG | -1.15 | -0.981 | -1.02 | -0.135
